Source: US20090117104A1 (published 2009)
Ends that are not written are not given here.

Assays:
[1] = target: mutated human GLP-2R (human) (UniProt O95838); test: cell-based or functional assay
mutated human GLP-2R = target: T1, mutated human GLP-2R (human, UniProt O95838 1-553); test: cell-based or functional assay
T1 chain: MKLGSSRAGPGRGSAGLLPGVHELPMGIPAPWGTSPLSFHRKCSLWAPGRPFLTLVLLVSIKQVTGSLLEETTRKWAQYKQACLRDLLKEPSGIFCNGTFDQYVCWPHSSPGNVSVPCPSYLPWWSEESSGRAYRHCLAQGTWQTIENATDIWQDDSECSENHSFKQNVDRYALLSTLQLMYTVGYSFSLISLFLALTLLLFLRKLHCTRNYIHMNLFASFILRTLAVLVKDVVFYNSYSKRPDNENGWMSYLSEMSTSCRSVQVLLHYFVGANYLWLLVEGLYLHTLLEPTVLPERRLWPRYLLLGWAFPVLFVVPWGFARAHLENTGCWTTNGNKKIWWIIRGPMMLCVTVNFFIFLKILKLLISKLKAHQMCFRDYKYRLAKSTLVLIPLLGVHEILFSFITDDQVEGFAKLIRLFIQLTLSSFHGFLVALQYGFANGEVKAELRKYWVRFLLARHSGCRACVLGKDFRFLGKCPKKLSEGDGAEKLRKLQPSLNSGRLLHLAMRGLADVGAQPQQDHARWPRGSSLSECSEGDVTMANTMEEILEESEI

Row | Binder | EC50 (nM), cAMP expression assay [1] [nM] | further results
1 | A2G GLP-2 mimetibody linker length variant, SEQ ID NO: 8 (Fc fusion, not shown: a dimerising Fc or GST, cysteine pairing not given here; also: mimetibody: followed by CH2-CH3 domains not given here) HGDGSFSDEMNTILDNLAARDFINWLIQTKITDGGGGSGGGGSGGGGSCPPCP | 12.7 | –
2 | A2S GLP-2 IgG4 mimetibody (Fc fusion) HSDGSFSDEMNTILDNLAARDFINWLIQTKITDGSGGGSGTLVTVSSESKYGPPCPPCPAPEAAGGPSVFLFPPKPDTLMISRTPEVTCVVVDVSQEDPEVQFNWYVDGVEVHNAKTKPREEQFNSTYRVVSVLTVLHQDWLNGKEYKCKVSNKGLPSSIEKTISKAKGQPREPQVYTLPPSQEEMTKNQVSLTCLVKGFYPSDIAVEWESNGQPENNYKTTPPVLDSDGSFFLYSRLTVDKSRWQEGNVFSCSVMHEALHNHYTQKSLSLSLGK | – | potency in the cAMP expression assay relative to the corresponding peptide (mutated human GLP-2R): ~4 fold less
3 | HGDGSFSDEMNTILDNLAARDFINWLIQTKITDGGGGSGGGGSCPPCP (Fc fusion, not shown: a dimerising Fc or GST, cysteine pairing not given here; also: mimetibody: followed by CH2-CH3 domains not given here) [A2G GLP-2 mimetibody linker length variant, SEQ ID NO: 7] | 22.5 | –
4 | GLP-2 mimetibody Pro substitution variant, SEQ ID NO: 42 (Fc fusion, not shown: a dimerising Fc or GST) HGDGSFSDEMNTILDNLAARDFINWLIQTKITDGSGGGSGALVPVSSESKYGPPCPPCP | 3.6 | –
5 | GLP-2 mimetibody Pro substitution variant, SEQ ID NO: 43 (Fc fusion, not shown: a dimerising Fc or GST) HGDGSFSDEMNTILDNLAARDFINWLIQTKITDGSGGGSGALVAVPSESKYGPPCPPCP | 4.8 | –
6 | GLP-2 mimetibody Pro substitution variant, SEQ ID NO: 45 (Fc fusion, not shown: a dimerising Fc or GST) HGDGSFSDEMNTILDNLAARDFINWLIQTKITDGSGGGSGALVAVSSESKPGPPCPPCP | 5.8 | –
7 | GLP-2 mimetibody Pro substitution variant, SEQ ID NO: 44 (Fc fusion, not shown: a dimerising Fc or GST) HGDGSFSDEMNTILDNLAARDFINWLIQTKITDGSGGGSGALVAVSPESKYGPPCPPCP | 7.7 | –
8 | A2G GLP-2 mimetibody linker length variant, SEQ ID NO: 10 (Fc fusion, not shown: a dimerising Fc or GST) HGDGSFSDEMNTILDNLAARDFINWLIQTKITDGGGGSGGGGSGGGGSGGGGSGGGGSCPPCP | 2.1 | –
9 | HGDGSFSDEMNTILDNLAARDFINWLIQTKITDGGGGSCPPCP (Fc fusion, not shown: a dimerising Fc or GST, cysteine pairing not given here; also: mimetibody: followed by CH2-CH3 domains not given here) [A2G GLP-2 mimetibody linker length variant, SEQ ID NO: 6] | 40 | –
10 | HGDGSFSDEMNTILDGQAARDFINWLIQTKITD [GLP-2(A2G, N16G, L17Q)] | – | activity in the cAMP expression assay relative to wild type GLP-2 (mutated human GLP-2R): 2 fold less
11 | HGDGSFSDEMNTILDNQAARDFINWLIQTKITD [GLP-2(A2G, L17Q)] | – | activity in the cAMP expression assay relative to wild type GLP-2 (mutated human GLP-2R): 3 fold less
12 | A2G GLP-2 mimetibody linker length variant, SEQ ID NO: 9 (Fc fusion, not shown: a dimerising Fc or GST, cysteine pairing not given here; also: mimetibody: followed by CH2-CH3 domains not given here) HGDGSFSDEMNTILDNLAARDFINWLIQTKITDGGGGSGGGGSGGGGSGGGGSCPPCP | 4.6 | –
